Our source for the stoichiometry N values is publication PMC9071465.

Assay [1] has as its target At-HIGLE (HYL-1 Interacting GIY-YIG Like Endonuclease) from Arabidopsis thaliana, full length (Arabidopsis thaliana). The assay can be described thus: SEC; Sephacryl 16/60 S-200, 20 mM Tris-HCl (pH 8.5), 5% glycerol, 5 mM beta-mercaptoethanol, 0.5 M NaCl; calibrated with gel filtration markers; oligomeric state from a standard curve. In general terms: SEC sorts molecules by how far they enter the pores of the column.

Assay [2] addresses At-HIGLE^184-368 (C-terminal region of At-HIGLE) (Arabidopsis thaliana). The assay can be described thus: SEC; Sephacryl 16/60 S-100, 20 mM Tris-HCl (pH 8.5), 5% glycerol, 5 mM beta-mercaptoethanol, 0.5 M NaCl; calibrated with gel filtration markers; oligomeric state from a standard curve.

As a reminder, the stoichiometry N is the number of molecules, sites or subunits per partner or assembly. In assay [1], “At-HIGLE (HYL-1 Interacting GIY-YIG Like Endonuclease) from Arabidopsis thaliana, full length (enzyme)” came in with a stoichiometry N of 2.
In assay [2], “At-HIGLE^184-368 (C-terminal region of At-HIGLE) (domain or fragment)” showed a stoichiometry N of 2.
